Experimental data from the supplement of paper PMC10126150.
± gives the standard deviation of the averaged measurements.

system: ATP; assay: switch fluorescence ratio, 500 uM ATP over buffer (Cy3 cluster intensity, sum of 5 cycles each) (fold (ratio)); higher = stronger signal-on switching upon ATP binding; sequences stand for … in TCGTCGGCAGCGTCAGATGTGTATAAGAGACAGTTTTTTTTTTTTTTTTTTTTTTTTT…TC; conditions: aptamer strand: ATP DNA aptamer (quencher-CACCTGGGGGAGTATTGCGGAGGAAGG + anchor), 100 nM annealed; ATP concentration: 500 uM
Summary of the method: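 Exposure to 500 uM ATP lasted 15 min at 22 °C before imaging, and a selection-buffer image was taken beforehand, for Cy3-labelled switching-strand clusters on a modified Illumina MiSeq flow-cell annealed to 100 nM quencher-labelled ATP aptamer. Five buffer/ATP cycles were run with NaOH stripping and re-annealing between them. The fluorescence ratio per cluster is summed target-cycle over summed buffer-cycle Cy3 intensity, averaged per switch-domain sequence. Clusters outside 100-1000 RFU were excluded.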

ATATGTGACG and TACTTGTTAT are within error of each other in switch fluorescence ratio: 1 ± 0.033 for the first, 0.989 ± 0.034 for the second.

First: AAGGGGCAGC
Second: TCGAGGGTAG
The switch fluorescence ratio of the first is lower: 0.9903 ± 0.0069 for the first, 1.02 ± 0.018 for the second.

GACACTTGGA and AGCCTTTTTC are within error of each other in switch fluorescence ratio: 1.03 ± 0.014 for the first, 1.08 ± 0.091 for the second.

CGCCATGGAA and TTGGGGTATA are within error of each other in switch fluorescence ratio: 1 ± 0.017 for the first, 1.03 ± 0.055 for the second.

GTATGGGGGT and CCGATTGTTG are within error of each other in switch fluorescence ratio: 0.963 ± 0.024 for the first, 1.02 ± 0.038 for the second.

Going from AATTTTGGAG to GCGTAAACGG, the switch fluorescence ratio rises from 0.996 ± 0.02 to 1.06 ± 0.022.

ATATTTAAAA and CGAAGGGAAT are within error of each other in switch fluorescence ratio: 0.985 ± 0.021 for the first, 1.03 ± 0.033 for the second.

ATTGGTGTAA and TTTCAAGGGG are within error of each other in switch fluorescence ratio: 1.01 ± 0.015 for the first, 0.996 ± 0.011 for the second.

AGGAATGGGA and CGGGTAAACG are within error of each other in switch fluorescence ratio: 1.02 ± 0.02 for the first, 0.964 ± 0.079 for the second.

CATTGTGGTA and AAAATTGCAG are within error of each other in switch fluorescence ratio: 1.014 ± 0.0033 for the first, 0.997 ± 0.012 for the second.

First: ACTCAGCGCG
Second: TACTCAGTGG
The switch fluorescence ratio of the first is higher: 1.08 ± 0.029 for the first, 1.01 ± 0.022 for the second.

TGGGTTTTGA and GGCAGAGATG are within error of each other in switch fluorescence ratio: 1.01 ± 0.033 for the first, 1.02 ± 0.046 for the second.

ACCACAAAGG and TAAAAACGTT are within error of each other in switch fluorescence ratio: 1.48 ± 0.61 for the first, 1.07 ± 0.086 for the second.

GACGGGAAAA and TAAAGTTATT are within error of each other in switch fluorescence ratio: 1.07 ± 0.14 for the first, 1.0106 ± 0.00041 for the second.

TTTTGGATTA and TTGGGCATTT are within error of each other in switch fluorescence ratio: 1 ± 0.039 for the first, 1.05 ± 0.089 for the second.

Going from GATGTTTTGG to CAACTTCCCC, the switch fluorescence ratio rises from 0.986 ± 0.033 to 1.22 ± 0.1.

ATTTAATCGC and GGGGGCGCCG are the same in switch fluorescence ratio: 1.01 ± 0.011 for the first, 1.01 ± 0.097 for the second.

Going from AGGCCTCTGT to AAACGCAGGG, the switch fluorescence ratio rises from 0.99 ± 0.011 to 1.03 ± 0.029.

AAAAGTATGG and ACTAGGTCAT are within error of each other in switch fluorescence ratio: 1 ± 0.015 for the first, 1.03 ± 0.017 for the second.

AAGTTAACTT and GGTGCTTATA are within error of each other in switch fluorescence ratio: 0.9883 ± 0.0087 for the first, 1 ± 0.013 for the second.

First: GGGTAACTGG
Second: CCGGGGACTG
The switch fluorescence ratio of the first is lower: 1 ± 0.027 for the first, 1.1 ± 0.033 for the second.

GGCGTCCTTT and TAGGATGCAG are within error of each other in switch fluorescence ratio: 0.994 ± 0.031 for the first, 0.957 ± 0.042 for the second.

Compared with CAGTAATTAT, CCCGTATATC is higher in switch fluorescence ratio: 0.997 ± 0.02 for the first, 2.72 ± 0.44 for the second.

AGAGAGGGCG and TAGCAGTATT are within error of each other in switch fluorescence ratio: 0.888 ± 0.14 for the first, 1.07 ± 0.065 for the second.

Going from TAACCACCGG to CAATTTTTAA, the switch fluorescence ratio falls from 1.03 ± 0.011 to 0.9798 ± 0.0088.

TAATTAATCT and TTCTTTGATT are within error of each other in switch fluorescence ratio: 0.992 ± 0.049 for the first, 1 ± 0.011 for the second.

GTTATATATG and TTACAGCTAG are the same in switch fluorescence ratio: 1.015 ± 0.0029 for the first, 1.01 ± 0.056 for the second.

GACCGAAAGT and GCGGGTTGGG are within error of each other in switch fluorescence ratio: 0.998 ± 0.01 for the first, 0.984 ± 0.047 for the second.

First: ATCCTAGTGT
Second: GGGCATGTTA
The switch fluorescence ratio of the first is higher: 1.04 ± 0.052 for the first, 0.9692 ± 0.0032 for the second.

Compared with CTTTAATCAA, AAGGGTATCC is higher in switch fluorescence ratio: 0.991 ± 0.013 for the first, 1.02 ± 0.013 for the second.

Compared with TGACTTTCGC, ATCGTATATG is lower in switch fluorescence ratio: 1.06 ± 0.028 for the first, 0.972 ± 0.043 for the second.

AATTTTAGTG and GGTGAGGCGC are within error of each other in switch fluorescence ratio: 0.986 ± 0.02 for the first, 0.985 ± 0.066 for the second.

TTTTGCGCAA and AGCTAGTTTA are within error of each other in switch fluorescence ratio: 0.9922 ± 0.0048 for the first, 0.998 ± 0.0036 for the second.

Going from GCGATAGACG to CATTCGTCGG, the switch fluorescence ratio rises from 0.99 ± 0.022 to 1.044 ± 0.0031.

TCGCATCCTT and AAGCCGGGCT are within error of each other in switch fluorescence ratio: 0.989 ± 0.017 for the first, 1.02 ± 0.029 for the second.

GTATGGGAAA and GGGTGAGGAG are within error of each other in switch fluorescence ratio: 1.04 ± 0.054 for the first, 0.998 ± 0.025 for the second.

TATTTAGTAT and AAGTTTAATA are within error of each other in switch fluorescence ratio: 0.99 ± 0.045 for the first, 0.943 ± 0.034 for the second.

GGGTCCATGA and TGGGGGCAAG are within error of each other in switch fluorescence ratio: 1.03 ± 0.05 for the first, 0.987 ± 0.018 for the second.

GTGTTAGGTT and GTTAAAAAGA are within error of each other in switch fluorescence ratio: 1.01 ± 0.017 for the first, 1.08 ± 0.22 for the second.

AGTTTAAGTG and ATTGCTTTTG are within error of each other in switch fluorescence ratio: 1.01 ± 0.013 for the first, 0.99799 ± 0.00028 for the second.

Going from TCAGGGTGTC to TACGTACAGC, the switch fluorescence ratio rises from 1.33 ± 0.17 to 1.7 ± 0.076.

GAGTTTGGGT and TAATGGGCGA are within error of each other in switch fluorescence ratio: 0.985 ± 0.032 for the first, 0.976 ± 0.064 for the second.

GGGGAGATGT and ACCTTTTAGG are within error of each other in switch fluorescence ratio: 1.01 ± 0.014 for the first, 0.965 ± 0.036 for the second.

TGAGCTTAGA and AAAGGAGCGT are within error of each other in switch fluorescence ratio: 1.02 ± 0.054 for the first, 0.992 ± 0.041 for the second.

CAACGTGGGG and TTAGGGAAAA are within error of each other in switch fluorescence ratio: 0.99 ± 0.017 for the first, 0.983 ± 0.038 for the second.

First: TCCATTAGAT
Second: CAAATGTGCT
The switch fluorescence ratio of the first is higher: 1.019 ± 0.0066 for the first, 0.986 ± 0.015 for the second.

CGGTGCACGG and GCACGCGTGC are within error of each other in switch fluorescence ratio: 1.05 ± 0.027 for the first, 1.01 ± 0.044 for the second.

GAGGAGCGTT and GCACTCTGGG are within error of each other in switch fluorescence ratio: 0.9804 ± 0.007 for the first, 0.995 ± 0.029 for the second.

TCTGGGGGTG and TCATCAGTCT are within error of each other in switch fluorescence ratio: 1.02 ± 0.059 for the first, 0.995 ± 0.039 for the second.

TGGGATTAAG and AGGCTTGTGT are within error of each other in switch fluorescence ratio: 0.987 ± 0.034 for the first, 0.99 ± 0.077 for the second.

CGGGGGAGAG and TTTCAAAAAT are within error of each other in switch fluorescence ratio: 0.9847 ± 0.009 for the first, 1.01 ± 0.044 for the second.

GAGGTCATTC and AGTTTAATTA are within error of each other in switch fluorescence ratio: 0.999 ± 0.029 for the first, 0.971 ± 0.051 for the second.

TCGGGGTGAC and GGGGGTGGAT are within error of each other in switch fluorescence ratio: 1.01 ± 0.018 for the first, 1 ± 0.025 for the second.

GTTGGCTATT and TTATAGGTTT are within error of each other in switch fluorescence ratio: 0.984 ± 0.007 for the first, 1 ± 0.019 for the second.

First: GGTCGGGACG
Second: GACATGGGAT
The switch fluorescence ratio of the first is lower: 0.9588 ± 0.0015 for the first, 1.01 ± 0.037 for the second.

GGGTAAATTT and ATAATGGGGA are within error of each other in switch fluorescence ratio: 0.996 ± 0.015 for the first, 1 ± 0.018 for the second.

ATTAGCCCGG and AGTTCGGGAG are within error of each other in switch fluorescence ratio: 0.9944 ± 0.00051 for the first, 0.99 ± 0.013 for the second.

TTGTGCGAGA and TTGTAACCAG are within error of each other in switch fluorescence ratio: 0.989 ± 0.013 for the first, 1.0005 ± 0.001 for the second.

AAAATATGTT and GGCTATGGGG are the same in switch fluorescence ratio: 1 ± 0.023 for the first, 1 ± 0.013 for the second.

GAATACTTCG and ATGAGGGCCA are within error of each other in switch fluorescence ratio: 1.07 ± 0.016 for the first, 1.01 ± 0.059 for the second.

AATCGGGAGG and TTCTTCGGGC are within error of each other in switch fluorescence ratio: 0.963 ± 0.062 for the first, 1.08 ± 0.077 for the second.

ATGCGGTAGA and ACCATGTACT are within error of each other in switch fluorescence ratio: 1.02 ± 0.042 for the first, 1.07 ± 0.016 for the second.

ATTTGATCTG and GGGTAATTGA are within error of each other in switch fluorescence ratio: 0.985 ± 0.014 for the first, 0.99 ± 0.032 for the second.

First: ATTTAATCCT
Second: CATTTTGATG
The switch fluorescence ratio of the first is higher: 1.09 ± 0.038 for the first, 0.966 ± 0.011 for the second.

GAGGTCAAGG and TGAACATTTT are within error of each other in switch fluorescence ratio: 0.987 ± 0.033 for the first, 1.07 ± 0.079 for the second.

ATTGGTTGGT and ACTATTTGCA are within error of each other in switch fluorescence ratio: 0.978 ± 0.048 for the first, 1.019 ± 0.0057 for the second.

GGTCGGCGTC and GCGGCCGTTG are within error of each other in switch fluorescence ratio: 1.014 ± 0.0089 for the first, 0.965 ± 0.064 for the second.

Going from ATGAAGCATG to GTTATTAGCG, the switch fluorescence ratio falls from 1.08 ± 0.04 to 0.969 ± 0.05.

Compared with CAGTATGGGA, GCGTGCGGGG is higher in switch fluorescence ratio: 0.999 ± 0.02 for the first, 1.028 ± 0.0098 for the second.

CTGAGGCTGA and TACTTGGGTC are within error of each other in switch fluorescence ratio: 1.12 ± 0.11 for the first, 1.06 ± 0.03 for the second.

GGGAGGGTGA and GTCATAGATT are within error of each other in switch fluorescence ratio: 0.99 ± 0.025 for the first, 0.989 ± 0.011 for the second.

Going from AAAAAAACA to AATTATGGGA, the switch fluorescence ratio falls from 1.2 ± 0.11 to 0.986 ± 0.051.

Going from CGAGCACGGG to TAATGGCTCG, the switch fluorescence ratio falls from 1.47 ± 0.053 to 1 ± 0.008.

GCAAGGGGGG and TCCGTGTCTA are within error of each other in switch fluorescence ratio: 1.09 ± 0.081 for the first, 1.07 ± 0.022 for the second.

TAAGTAGCAG and AGCAAAAGGA are within error of each other in switch fluorescence ratio: 0.997 ± 0.025 for the first, 1.16 ± 0.22 for the second.

ATACAGGAAC and GCTCGGATAA are the same in switch fluorescence ratio: 1.03 ± 0.038 for the first, 1.0306 ± 0.00026 for the second.

Going from GAATTACTAT to TGCTGGGTAT, the switch fluorescence ratio falls from 1.038 ± 0.0087 to 0.9954 ± 0.0031.

Compared with ACAACGGCCG, TACTAGTACA is higher in switch fluorescence ratio: 1.05 ± 0.012 for the first, 1.09 ± 0.018 for the second.

Sequence AGTTGGGGGC has a switch fluorescence ratio of 1 ± 0.079.
